Reference: patent publication US20260028402A1

Biological target: HuCD100-His (human) (UniProt Q92854)
Experiment: cell-based or functional assay

- MDSC proportion (%) at 2.821 nM antibody: 27.1%
- MDSC proportion (%) at 8.463 nM antibody: 16.3%
- MDSC proportion (%) at 25.389 nM antibody: 8.29%
- MDSC proportion (%) at 76.166 nM antibody: 6.92%
- MDSC proportion (%) at 228.498 nM antibody: 6.97%
- MDSC proportion (%) at 685.495 nM antibody: 10.3%
B1: Pepinemab (antibody, INN chains, looked up, V domains shown)
VH: QVQLVQSGAEVKKPGSSVKVSCKASGYSFSDYYMHWVRQAPGQGLEWMGQINPTTGGASYNQKFKGKATITVDKSTSTAYMELSSLRSEDTAVYYCARYYYGRHFDVWGQGTTVTVSS
VL: DIVMTQSPDSLAVSLGERATINCKASQSVDYDGDSYMNWYQQKPGQPPKLLIYAASNLESGVPDRFSGSGSGTDFTLTISSLQAEDVAVYYCQQSNEDPYTFGQGTKLEIK
modifications: IgG4
